B1: nanobody CA9865 (VHH)
VHH: QVQLVESGGGLVQAGGSLRLSCAPSGRTSSTYTMGWFRQAPGKEREFVAAISWTGTPYYADSVKGRFTISRDNAKNTVYLQMNSLKPEDTAVYYCAAARPGLFIFVSDYARTAKYDYWGQGTQVTVPP
notes: the nanobody part of PMb65, whose structure is deposited as PDB 8G8W; phage display library in the pMESy4 vector; also called nanobody 65
B2: human uncoupling protein 1 (UCP1) (natural protein, UniProt P25874 2-307, looked up)
chain: GGLTASDVHPTLGVQLFSAGIAACLADVITFPLDTAKVRLQVQGECPTSSVIRYKGVLGTITAVVKTEGRMKLYSGLPAGLQRQISSASLRIGLYDTVQEFLTAGKETAPSLGSKILAGLTTGGVAVFIGQPTEVVKVRLQAQSHLHGIKPRYTGTYNAYRIIATTEGLTGLWKGTTPNLMRSVIINCTELVTYDLMKEAFVKNNILADDVPCHLVSALIAGFCATAMSSPVDVVKTRFINSPPGQYKSVPNCAMKVFTNEGPTAFFKGLVPSFLRLGSWNVIMFVCFEQLKRELSKSRQTMDCAT
notes: wild-type human UCP1, UniProt P25874; the forward primer joins the His8 tag and Factor Xa site to codon 2 of UCP1, the reverse primer runs to the stop codon; also called SLC25A7; not shown: His8, N-terminal, cleaved
B3: nanobody CA9871 (VHH)
VHH: QVQLVESGGGLVQAGDSLRLSCAASGLTLKNYAMGWFRQAPGKEHEFVAVISWSGSGTSYADSVEGRFTISRDNAKNTAFLQMSSLKPEDTAVYYCAARDGGYGSRWPDEYTYWGQGTQVTVPP
notes: the nanobody part of PMb71, whose structure is deposited as PDB 8G8W; phage display library in the pMESy4 vector; also called nanobody 71

Key:
Settings in all cases: both partners purified
[1] = biological target: B2; assay: thermostability shift assay (cysteine-reactive probe CPM); 5 μg purified human UCP1 with an equimolar amount of nanobody, with or without 1 mM GTP, 1 hour at 4°C; 25° to 90°C at 5.6°C/min
[2] = biological target: T1, Pro-macrobody PMb65 (nanobody CA9865 fused with maltose-binding protein via a Pro-Pro linker) (llama (Lama glama) | ); assay: cryo-EM structure; purified UCP1, PMb65 and PMb71 mixed stoichiometrically, overnight at 4°C, with 2 mM GTP and 2 mM D-maltose; 20 mM MES pH 6.0, 150 mM NaCl, 0.02% decyl maltose neopentyl glycol
T1 construct: nanobody CA9865; the structure with PMb65 is deposited as PDB 8G8W (only regions of PMb65 are modelled); Pro-Pro linker between nanobody and MBP; parts of it are removed from the deposited model; also called cytoplasmic Pro-macrobody; source: E. coli MC1061, purified (Ni-NTA, 3C cleavage, Strep-Tactin XT); not shown: MBP with deca-His tag, N-terminal, cleaved

[3] = biological target: T2, Pro-macrobody PMb71 (nanobody CA9871 fused with maltose-binding protein via a Pro-Pro linker) (llama (Lama glama) | ); assay: as above
T2 construct: nanobody CA9871; the structure with PMb71 is deposited as PDB 8G8W; Pro-Pro linker between nanobody and MBP; also called matrix Pro-macrobody; source: E. coli MC1061, purified (Ni-NTA, 3C cleavage, Strep-Tactin XT); not shown: MBP with deca-His tag, N-terminal, cleaved

Row | Binder | thermal stabilisation (shift of Tm) [1] | binding result [2] | binding result [3]
1 | B1 | 5 °C | – | –
2 | B2 | – | binds | binds
3 | B3 | 0.8 °C | – | –

— PMC10413660, “Structural basis of purine nucleotide inhibition of human uncoupling protein 1” (Science Advances, 2023)
